# From patent publication US12241090B2, “Methods and systems for converting precursor cells into gastric tissues through directed differentiation” (CHILDREN'S HOSPITAL MEDICAL CENTER, priority 2014, dated 2025)
# B1: Wnt3a: recombinant WNT3A, Wnt ligand (R&D Systems) (protein, UniProt P56704 19-352, looked up)
# Protein Wnt-3a: SYPIWWSLAVGPQYSSLGSQPILCASIPGLVPKQLRFCRNYVEIMPSVAEGIKIGIQECQHQFRGRRWNCTTVHDSLAIFGPVLDKATRESAFVHAIASAGVAFAVTRSCAEGTAAICGCSSRHQGSPGKGWKWGGCSEDIEFGGMVSREFADARENRPDARSAMNRHNNEAGRQAIASHMHLKCKCHGLSGSCEVKTCWWSQPDFRAIGDFLKDKYDSASEMVVEKHRESRGWVETLRPRYTYFKVPTERDLVYYEASPNFCEPNPETGSFGTRDRTCNVSSHGIDGCDLLCCGRGHNARAERRREKCRCVFHWCCYVSCQECTRVYDVHTCK
# B2: Noggin: BMP antagonist / BMP inhibitor (R&D Systems) (protein, UniProt Q13253 28-232, looked up)
# Noggin: QHYLHIRPAPSDNLPLVDLIEHPDPIFDPKEKDLNETLLRSLLGGHYDPGFMATSPPEDRPGGGGGAAGGAEDLAELDQLLRQRPSGAMPSEIKGLEFSEGLAQGKKQRLSKKLRRKLQMWLWSQTFCPVLYAWNDLGSRFWPRYVKVGSCFSKRSCSVPEGMVCKPSKSVHLTVLRWRCQRRGGQRCGWIPIQYPIISECKCSC
# Key:
# [1] = tested on: hPSC-derived foregut spheroids; experiment: Fundus specification protocol: Wnt signaling at days 6-9 of gastric organoid differentiation, qPCR; format: cell-based, human; details: Wnt3a at 100 ng/mL and 500 ng/mL
# Procedure: Next, the function of Wnt signaling in the regulation of fundus-antrum patterning at days 6-9 of the gastric organoid differentiation protocol was tested. Addition of Wnt3a (at 100 ng/mL and 500 ng/mL) had no effect on spheroid gene expression, but it […] expression of the Wnt target gene Axin2. Thus, the effects of the small molecule CHIR99021 (CHIR; 2 uM) were tested. CHIR99021 stimulates Wnt signaling in a receptor-independent fashion.
# Analysis was performed using the ΔΔCT method.
# [2] = tested on: hPSC-derived definitive endoderm (DE) cultures; experiment: Endoderm patterning of hPSC-derived DE cultures with growth factors/antagonists, qPCR and immunofluorescence; format: cell-based, human
# Procedure: Following DE induction, cells were treated for three days with growth factors/antagonists in RPMI 1640 with 2.0% dFBS. […] RA (2 μM; Sigma Aldrich) is added on the final day. Three-dimensional growth and antral specification. Posterior foregut spheroids were embedded in Matrigel (BD Biosciences) as previously described^10, 12 and subsequently grown in Advanced DMEM/F12 (Invitrogen) supplemented with N2 (Invitrogen), B27 (Invitrogen), L-glutamine, 10 μM HEPES, penicillin/streptomycin, and EGF (100 ng ml^−1; R&D Systems). For antral specification, RA and noggin were added for the first three days of three-dimensional growth. For endocrine cell specification, the EGF concentration is lowered to 10 ng ml^−1 at day 30.
# The media was changed every day.
# All tissues were fixed in 4% paraformaldehyde for either one hour at room temperature for frozen processing or overnight at 4° C. for paraffin processing. For frozen sections, tissue was protected in 30% sucrose overnight at 4° C., then embedded in OCT (Tissue-Tek), and cut at 10 μm. For paraffin sections, tissue was processed through a graded ethanol series, followed by xylene, and then embedded in paraffin and cut at 7 μm. Tissue culture cells were fixed for 15 minutes at room temperature and stained directly. For staining, frozen slides were thawed to room temperature and rehydrated in PBS, while paraffin slides were deparaffinized and subjected to antigen retrieval. Slides were blocked in 5% normal donkey serum (Jackson Immuno Research) in PBS plus 0.5% Triton-X for 30 minutes at room temperature. Primary antibodies (listed in Methods Table 1) were diluted in blocking buffer and incubated overnight at 4° C. Slides were washed in PBS and incubated with secondary antibody for one hour at room temperature, and coverslips were mounted using Fluoromount-G (Southern Biotech). Confocal images were captured on a Nikon A1Rsi inverted confocal microscope.
# [3] = DE cultures after three days, even in the presence of WNT/FGF
Molecule,effect on spheroid gene expression [1],expression of the Wnt target gene Axin2 [1],"CDX2 expression [2, 3]","foregut marker SOX2 expression [2, 3]","BMP target genes MSX1/2, qPCR ([2]; response to noggin)"
B1,no effect,did induce,,,
B2,,,repressed,induced,suppressed
